# B1: Shape-3 (dsDNA)
# DNA 1: AAACAAAAAGAACACCGTTTTATTTTGGTGT
# DNA 2: ACACCAAAATAAAACGGTGTTCTTTTTGTTT
# B2: Shape-1 (dsDNA)
# DNA 1: GGCCAAAAAGAACACCGTGTACTTTTGGGCT
# DNA 2: AGCCCAAAAGTACACGGTGTTCTTTTTGGCC
# B3: Shape-4 (dsDNA)
# DNA 1: GGGCGTTCGGGACATAATGGCGGGAACCCCC
# DNA 2: GGGGGTTCCCGCCATTATGTCCCGAACGCCC
# B4: Shape-2 (dsDNA)
# DNA 1: GGGCGGAGGGTACACCGTGTACTCTTCCCCC
# DNA 2: GGGGGAAGAGTACACGGTGTACCCTCCGCCC
# Key:
# [1] = target: AR-DBD (human, UniProt P10275 557-647); assay: EMSA
# [2] = target: GR-DBD (human, UniProt P04150 418-506); assay: EMSA
# Sequence of GR-DBD (P04150 418-506): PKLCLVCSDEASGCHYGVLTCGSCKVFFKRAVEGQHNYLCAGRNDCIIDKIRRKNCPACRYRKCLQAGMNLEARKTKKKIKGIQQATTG
# Sequence of AR-DBD (P10275 557-647): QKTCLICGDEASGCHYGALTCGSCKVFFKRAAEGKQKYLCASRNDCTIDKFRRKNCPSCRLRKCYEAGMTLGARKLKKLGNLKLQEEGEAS
binder,measurement,setting,value
B1,binding result,[1],binds
B2,binding result,[1],binds
B3,binding result,[2],binds
B4,binding result,[1],binds
